“And” between values parts separate entries of the source, which are not always exact repeats. Equal entries are not always repeated.
Legend:
[1] = molecular target: T1, cynomolgus monkey MASP-2 (endogenous, in cynomolgus monkey serum) (cynomolgus monkey, UniProt O00187 16-686 (human entry), limits assumed); assay: cell-based or functional assay
[2] = molecular target: T2, mouse MASP-2 (endogenous, in mouse serum or hirudin plasma) (mouse, UniProt Q91WP0 20-685); assay: cell-based or functional assay
T2 sequence (Q91WP0 20-685 limits assumed): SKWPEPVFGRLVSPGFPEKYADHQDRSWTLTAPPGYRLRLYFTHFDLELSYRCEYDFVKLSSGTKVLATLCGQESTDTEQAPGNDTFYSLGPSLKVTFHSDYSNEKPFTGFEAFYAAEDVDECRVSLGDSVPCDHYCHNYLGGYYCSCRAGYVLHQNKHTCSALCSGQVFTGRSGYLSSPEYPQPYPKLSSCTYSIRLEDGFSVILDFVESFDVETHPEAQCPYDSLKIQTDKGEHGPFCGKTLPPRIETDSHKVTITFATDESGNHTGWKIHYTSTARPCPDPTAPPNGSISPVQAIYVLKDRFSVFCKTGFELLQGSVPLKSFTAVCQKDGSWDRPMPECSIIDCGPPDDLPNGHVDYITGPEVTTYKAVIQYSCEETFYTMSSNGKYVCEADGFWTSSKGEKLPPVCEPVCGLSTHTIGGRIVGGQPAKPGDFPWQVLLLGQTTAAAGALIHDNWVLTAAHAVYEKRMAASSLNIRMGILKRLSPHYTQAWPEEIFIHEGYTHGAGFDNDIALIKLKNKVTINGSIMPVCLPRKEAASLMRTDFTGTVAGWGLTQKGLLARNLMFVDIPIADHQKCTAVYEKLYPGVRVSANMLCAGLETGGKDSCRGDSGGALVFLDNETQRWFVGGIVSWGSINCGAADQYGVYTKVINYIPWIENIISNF

[3] = molecular target: Recombinant human MASP-2 (specificity ELISA, Example 14) (human, UniProt O00187 16-686, limits assumed); assay: solid phase ELISA, immobilized protease, apparent KD by 4-parameter logistic fit
Chain of Recombinant human MASP-2 (specificity ELISA, Example 14) (O00187 16-686 limits assumed): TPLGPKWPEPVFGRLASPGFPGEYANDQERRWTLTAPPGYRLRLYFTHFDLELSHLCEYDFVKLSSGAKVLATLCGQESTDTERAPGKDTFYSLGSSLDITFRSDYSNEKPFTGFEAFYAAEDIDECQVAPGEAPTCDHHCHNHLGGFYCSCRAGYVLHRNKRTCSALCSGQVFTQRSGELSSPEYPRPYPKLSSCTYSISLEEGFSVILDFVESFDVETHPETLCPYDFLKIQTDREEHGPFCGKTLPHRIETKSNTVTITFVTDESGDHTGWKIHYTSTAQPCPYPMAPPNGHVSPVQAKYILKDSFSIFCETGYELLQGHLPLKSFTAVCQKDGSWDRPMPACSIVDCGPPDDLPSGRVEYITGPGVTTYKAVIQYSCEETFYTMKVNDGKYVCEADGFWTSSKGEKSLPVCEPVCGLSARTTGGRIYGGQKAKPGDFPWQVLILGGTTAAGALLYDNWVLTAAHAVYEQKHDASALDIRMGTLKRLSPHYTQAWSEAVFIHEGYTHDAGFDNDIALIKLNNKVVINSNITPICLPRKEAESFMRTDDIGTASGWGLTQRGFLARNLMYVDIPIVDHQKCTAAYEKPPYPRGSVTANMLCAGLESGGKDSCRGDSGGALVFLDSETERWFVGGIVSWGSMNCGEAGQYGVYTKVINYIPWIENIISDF
Description: (§1) The apparent dissociation constant (KD) was estimated by nonlinear regression using a 4-parameter logistic model.
Fold selectivity calculated as KD(related serine protease)/mean KD(MASP-2).

[4] = molecular target: T3, Human MASP-2 CCP1/CCP2/SP (6xHis, E. coli, Example 10) (human, UniProt O00187 287-686, limits assumed); assay: BLI (Octet RED96), OMS858 on anti-human Fc capture sensors, MASP-2 protein 1.6-50 nM
T3 construct: Expressed in BL21(DE3)pLysS E. coli and purified by IMAC; It may be the same protein as m6; also called catalytic fragment (CCP1-CCP2-SP domains) of human MASP-2; wild-type human H508
T3 sequence (O00187 other isoform, or with tags, fused parts or gaps limits assumed): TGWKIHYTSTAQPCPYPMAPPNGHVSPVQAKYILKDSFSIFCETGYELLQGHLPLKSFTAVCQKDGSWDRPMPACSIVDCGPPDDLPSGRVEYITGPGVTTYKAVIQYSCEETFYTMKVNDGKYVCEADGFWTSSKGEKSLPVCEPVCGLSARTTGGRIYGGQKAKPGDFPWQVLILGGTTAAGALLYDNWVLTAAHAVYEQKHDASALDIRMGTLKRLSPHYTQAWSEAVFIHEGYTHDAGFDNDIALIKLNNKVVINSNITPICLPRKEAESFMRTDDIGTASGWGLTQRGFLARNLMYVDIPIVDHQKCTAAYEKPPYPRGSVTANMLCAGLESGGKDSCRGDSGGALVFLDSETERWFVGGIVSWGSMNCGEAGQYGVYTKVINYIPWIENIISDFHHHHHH
Experimental: (§2) All measurements were conducted with the Octet RED96 system (ForteBio) using PBS containing 1% BSA and 0.02% Tween 20 as assay buffer. […] After one step of baseline, the captured sensors were submerged into wells containing different concentrations of the target proteins (1.6-50 nM) for the association step (120 sec), and then transferred to empty wells for the dissociation step (200 sec). In all experiments, the captured sensor was also dipped in a well containing no analyte to allow single reference subtraction to compensate for the natural dissociation of the captured antibody. The recorded binding sensorgrams were analyzed with Octet data analysis software (ForteBio) to determine binding affinity (KD).

Cyno MASP-2 CCP1/CCP2/SP = molecular target: T4, Cyno MASP-2 CCP1/CCP2/SP (cynomolgus monkey, UniProt O00187 287-686 (human entry), limits assumed); assay: as above
T4 construct: also called cynomolgus monkey MASP-2 CCP1/CCP2/SP
T4 sequence (O00187 other isoform, or with tags, fused parts or gaps limits assumed): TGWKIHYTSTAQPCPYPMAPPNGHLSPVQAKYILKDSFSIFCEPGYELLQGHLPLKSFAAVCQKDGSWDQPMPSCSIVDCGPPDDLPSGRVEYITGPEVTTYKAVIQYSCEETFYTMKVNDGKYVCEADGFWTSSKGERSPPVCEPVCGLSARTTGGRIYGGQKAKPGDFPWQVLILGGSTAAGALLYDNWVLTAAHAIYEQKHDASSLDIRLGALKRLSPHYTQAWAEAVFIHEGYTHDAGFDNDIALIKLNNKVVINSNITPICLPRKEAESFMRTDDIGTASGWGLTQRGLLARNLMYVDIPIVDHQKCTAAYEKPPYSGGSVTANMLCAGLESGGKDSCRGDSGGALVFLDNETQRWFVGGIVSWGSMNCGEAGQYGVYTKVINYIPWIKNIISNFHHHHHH
Experimental: as §2

C1s = molecular target: T5, C1s (human, UniProt P09871 16-688, limits assumed); assay: solid phase ELISA, immobilized protease, apparent KD
T5 construct: Species read from 'Recombinant human MASP-2 or C1r, C1s, CFD, MASP-1 and MASP-3'
T5 sequence (looked up): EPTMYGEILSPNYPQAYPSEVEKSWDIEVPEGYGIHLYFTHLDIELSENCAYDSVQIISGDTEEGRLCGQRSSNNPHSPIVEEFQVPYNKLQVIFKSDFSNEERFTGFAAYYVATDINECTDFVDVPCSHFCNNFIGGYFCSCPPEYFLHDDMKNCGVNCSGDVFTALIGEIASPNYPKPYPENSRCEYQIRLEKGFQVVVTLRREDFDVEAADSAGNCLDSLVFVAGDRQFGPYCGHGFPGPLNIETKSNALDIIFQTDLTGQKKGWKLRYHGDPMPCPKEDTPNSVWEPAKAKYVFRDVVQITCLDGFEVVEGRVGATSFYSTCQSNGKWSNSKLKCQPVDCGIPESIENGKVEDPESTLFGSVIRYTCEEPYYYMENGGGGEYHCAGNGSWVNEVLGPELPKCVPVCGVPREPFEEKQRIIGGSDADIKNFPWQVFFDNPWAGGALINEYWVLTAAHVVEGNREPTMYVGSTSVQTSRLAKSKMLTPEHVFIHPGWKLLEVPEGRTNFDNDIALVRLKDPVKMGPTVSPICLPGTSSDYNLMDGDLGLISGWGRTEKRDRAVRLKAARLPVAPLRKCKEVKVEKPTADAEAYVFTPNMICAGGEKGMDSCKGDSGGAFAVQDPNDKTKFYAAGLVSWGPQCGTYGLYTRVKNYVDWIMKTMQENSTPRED
Description: as §1

[5] = molecular target: T6, human MASP-2 (CCP1-CCP2-SP fragment) (human, UniProt O00187 287-686, limits assumed); assay: solid phase ELISA, plate coated with human MASP-2 (CCP1-CCP2-SP fragment), bound mAb detected with goat anti-human IgG-HRP, OD450
T6 construct: also called human MASP-2 (CCP1/2/SP fragment); hMASP-2-CCP1-CCP2-SP
T6 sequence (O00187 287-686 limits assumed): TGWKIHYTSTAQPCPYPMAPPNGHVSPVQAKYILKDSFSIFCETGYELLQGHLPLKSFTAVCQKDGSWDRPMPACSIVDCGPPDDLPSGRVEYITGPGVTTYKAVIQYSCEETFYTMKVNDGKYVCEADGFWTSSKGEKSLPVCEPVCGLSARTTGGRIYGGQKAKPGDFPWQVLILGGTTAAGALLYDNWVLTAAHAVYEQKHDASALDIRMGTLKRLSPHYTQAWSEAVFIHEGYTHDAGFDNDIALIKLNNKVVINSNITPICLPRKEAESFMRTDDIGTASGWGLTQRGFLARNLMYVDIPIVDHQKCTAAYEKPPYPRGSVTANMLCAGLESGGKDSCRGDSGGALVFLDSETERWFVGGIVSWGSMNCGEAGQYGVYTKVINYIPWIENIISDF
Experimental: To measure binding of the 26 purified recombinant MASP-2 antibodies to human MASP-2 (CCP1-CCP2-SP fragment), a solid phase ELISA assay was carried out as follows. A MaxiSorp ELISA plate was coated with human MASP-2 (CCP1/2/SP fragment) at 1.0 μg/mL in carbonate/bi-carbonate buffer overnight at 4° C. […] The plate was washed (PBS-T, 0.05%) and a detection antibody was added (goat anti-human IgG-HRP) for one hour at room temperature. After another wash (PBS-T, 0.05%) the plate was developed (5 minutes) with OPT EIA TMB (BD Biosciences #555214). Absorbance reading at A450 was measured using the Spectramax M5e plate reader.
A solid phase ELISA assay was carried out to measure binding of the three selected MASP-2 inhibitory antibodies to human MASP-2 (CCP1-CCP2-SP fragment), as described in Example 1.

[6] = molecular target: T7, human MASP-2 (endogenous, in normal human serum) (human, UniProt O00187 16-686); assay: cell-based or functional assay
T7 sequence (O00187 16-686 limits assumed): as the sequence (O00187 16-686 limits assumed) above

[7] = molecular target: T1, cynomolgus monkey MASP-2 (endogenous, …); assay: cell-based or functional assay; remark: listed apart in the source
[8] = molecular target: rabbit MASP-2 (endogenous, in rabbit serum) (rabbit); assay: cell-based or functional assay
[9] = molecular target: dog MASP-2 (endogenous, in dog serum) (dog); assay: cell-based or functional assay
Chain of dog MASP-2 (endogenous, in dog serum) (dog) (chain, as listed by the source limits assumed): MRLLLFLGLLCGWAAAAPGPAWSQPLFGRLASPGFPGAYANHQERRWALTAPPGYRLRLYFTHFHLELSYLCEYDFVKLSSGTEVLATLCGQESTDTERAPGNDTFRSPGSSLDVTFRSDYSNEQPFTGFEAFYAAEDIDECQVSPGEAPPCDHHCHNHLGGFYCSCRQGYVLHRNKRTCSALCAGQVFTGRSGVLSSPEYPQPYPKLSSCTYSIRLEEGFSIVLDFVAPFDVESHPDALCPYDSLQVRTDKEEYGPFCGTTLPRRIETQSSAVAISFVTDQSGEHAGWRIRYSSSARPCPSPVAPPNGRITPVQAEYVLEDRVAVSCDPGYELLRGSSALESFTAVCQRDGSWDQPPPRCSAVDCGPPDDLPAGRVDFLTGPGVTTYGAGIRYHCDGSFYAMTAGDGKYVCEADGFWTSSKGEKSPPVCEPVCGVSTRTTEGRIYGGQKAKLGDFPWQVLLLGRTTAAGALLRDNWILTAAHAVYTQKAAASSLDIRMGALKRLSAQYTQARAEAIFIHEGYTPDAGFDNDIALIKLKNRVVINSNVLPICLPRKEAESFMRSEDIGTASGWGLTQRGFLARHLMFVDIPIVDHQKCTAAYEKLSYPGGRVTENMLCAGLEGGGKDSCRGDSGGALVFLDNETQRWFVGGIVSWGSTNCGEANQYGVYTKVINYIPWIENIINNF

[10] = molecular target: T2, mouse MASP-2 (endogenous, in mouse …); assay: cell-based or functional assay; remark: listed apart in the source
[11] = molecular target: T7, human MASP-2 (endogenous, in normal …); assay: cell-based or functional assay; remark: listed apart in the source

T1 sequence (O00187 other isoform, or with tags, fused parts or gaps limits assumed): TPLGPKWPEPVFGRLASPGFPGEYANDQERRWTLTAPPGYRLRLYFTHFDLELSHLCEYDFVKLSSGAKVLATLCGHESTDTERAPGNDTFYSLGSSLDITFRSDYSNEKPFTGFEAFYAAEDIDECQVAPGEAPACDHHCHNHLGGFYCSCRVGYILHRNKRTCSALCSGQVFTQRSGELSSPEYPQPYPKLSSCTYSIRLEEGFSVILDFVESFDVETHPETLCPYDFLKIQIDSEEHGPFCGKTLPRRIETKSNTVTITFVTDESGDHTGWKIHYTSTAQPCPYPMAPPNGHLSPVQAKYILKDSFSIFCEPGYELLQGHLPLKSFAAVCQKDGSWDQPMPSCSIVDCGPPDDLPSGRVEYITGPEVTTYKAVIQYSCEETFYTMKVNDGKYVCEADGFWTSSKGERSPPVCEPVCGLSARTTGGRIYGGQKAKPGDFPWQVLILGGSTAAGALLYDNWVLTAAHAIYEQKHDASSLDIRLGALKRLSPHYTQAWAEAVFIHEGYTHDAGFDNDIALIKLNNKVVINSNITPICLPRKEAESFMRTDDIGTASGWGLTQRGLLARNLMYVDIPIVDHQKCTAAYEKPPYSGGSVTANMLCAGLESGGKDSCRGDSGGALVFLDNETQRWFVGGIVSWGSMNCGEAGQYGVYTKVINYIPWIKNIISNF

B1: mAb OMS858 (humanized anti-MASP-2 antibody) (antibody, V domains shown)
VH: QVQLVQSGAEVKKPGASVKVSCKASGYTFTNHHMHWLRQAPGQGLEWIGDIDASDSETHYIEKFKDRATLTIDKSSSTAYMELSSLRSEDTAVYYCARGDITTTLRYFDVWGQGTLVTVSS
VL: DIQLTQSPSSLSASVGDRVTITCSASSSVRYMYWYQQKPGKAPKLLIYDTSNLASGVPSRFSGSGSGTDNTLTISSLQPEDFATYYCQQWSSYPLTFGQGTKVEIKR
notes: also called antibody OMS858; biotinylated OMS858
For B1, the “Ratio (IC50-Query/IC50-Human), lectin-dependent C4 activation” value [1] was 40.5 fold, the “Ratio (IC50-Query/IC50-Human), lectin-dependent C4 activation” value [2] was 10.9 fold and the Kd [3] was 0.042 µg/mL and 0.051 µg/mL. For the same binder, the Kd [4] was 4.52 nM, the Kd (Cyno MASP-2 CCP1/CCP2/SP) was 8.23 nM and the Kd (C1s) was > 100 µg/mL. The “EC50 (read off the curve)” value [5] was ~0.2 nM, the “C5b-9 deposition, lectin pathway-specific conditions (Wieslab), human serum, IC50” value [6] was 0.81 nM and the “MAC deposition under lectin pathway-specific conditions (Wieslab COMPL300), IC50” value [6] was ~1 nM. The “lectin-dependent C4 activation in 50% cynomolgus monkey serum, IC50, Experiment 1” value [7] was 42.8 nM, the “lectin-dependent C4 activation in 50% cynomolgus monkey serum, IC50, Experiment 2” value [7] was 44 nM and the “lectin-dependent C4 activation in 50% cynomolgus monkey serum, IC50, Experiment 3” value [7] was 45.5 nM. The “lectin-dependent C4 activation in 50% cynomolgus monkey serum, IC50, MEAN” value [7] was 44.1 nM, the “lectin-dependent C4 activation in 50% rabbit serum, IC50, Experiment 1” value [8] was > 500 nM and the “lectin-dependent C4 activation in 50% rabbit serum, IC50, Experiment 2” value [8] was > 500 nM. For the same binder, the “lectin-dependent C4 activation in 50% rabbit serum, IC50, Experiment 3” value [8] was > 500 nM, the “lectin-dependent C4 activation in 50% dog serum, IC50, Experiment 1” value [9] was > 500 nM and the “lectin-dependent C4 activation in 50% dog serum, IC50, Experiment 2” value [9] was > 500 nM. For the same binder, the “lectin-dependent C4 activation in 50% dog serum, IC50, Experiment 3” value [9] was > 500 nM, the “lectin-dependent C4 activation in 50% mouse hirudin plasma, IC50, Experiment 1” value [10] was 9.59 nM and the “lectin-dependent C4 activation in 50% mouse hirudin plasma, IC50, Experiment 2” value [10] was 11.2 nM. The “lectin-dependent C4 activation in 50% mouse hirudin plasma, IC50, Experiment 3” value [10] was 14.8 nM, the “lectin-dependent C4 activation in 50% mouse hirudin plasma, IC50, MEAN” value [10] was 11.9 nM and the “lectin-dependent C4 activation in 50% human serum, IC50, Experiment 1” value [11] was 0.89 nM. For the same binder, the “lectin-dependent C4 activation in 50% human serum, IC50, Experiment 2” value [11] was 0.86 nM, the “lectin-dependent C4 activation in 50% human serum, IC50, Experiment 3” value [11] was 1.52 nM and the “lectin-dependent C4 activation in 50% human serum, IC50, MEAN” value [11] was 1.09 nM.

— patent US20230265215A1 (OMEROS, published 2023)
